Experimental data: patent US20230257470A1 (published 2023)

T1: human FcγRIIa(H) (allotype H131) (human, UniProt P12318 36-217)
T1 construct: Soluble analyte in SPR; also called hFcgRIIa(H); FcgRIIaH
T1 sequence: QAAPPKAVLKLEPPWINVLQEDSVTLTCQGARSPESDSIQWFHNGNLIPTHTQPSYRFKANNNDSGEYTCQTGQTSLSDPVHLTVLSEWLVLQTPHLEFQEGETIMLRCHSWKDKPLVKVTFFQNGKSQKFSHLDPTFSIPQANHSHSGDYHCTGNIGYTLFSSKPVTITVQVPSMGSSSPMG

T2: human FcγRIIa(R) (allotype R131) (human, UniProt P12318 36-217)
T2 construct: Soluble analyte in SPR; also called hFcgRIIa(R); FcgRIIaR
T2 chain: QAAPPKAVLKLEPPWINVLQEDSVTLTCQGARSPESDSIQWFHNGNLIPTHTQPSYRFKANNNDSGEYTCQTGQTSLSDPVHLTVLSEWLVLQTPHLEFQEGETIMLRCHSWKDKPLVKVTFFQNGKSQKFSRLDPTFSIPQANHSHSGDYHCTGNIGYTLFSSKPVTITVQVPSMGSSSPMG

T3: human FcγRIIb (human, UniProt P31994 43-217, limits assumed)
T3 construct: Soluble analyte in SPR; also called hFcgRIIb; FcgRIIb
T3 sequence: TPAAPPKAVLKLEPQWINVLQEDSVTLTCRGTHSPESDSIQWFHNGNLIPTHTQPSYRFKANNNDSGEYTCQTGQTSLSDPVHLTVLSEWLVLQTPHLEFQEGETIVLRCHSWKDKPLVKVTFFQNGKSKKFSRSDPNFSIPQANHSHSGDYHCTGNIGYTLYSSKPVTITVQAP

T4: human FcγRIIa type R (human, UniProt P12318 36-217)
T4 construct: also called FcγRIIaR; Fc γ RIIaR
T4 chain: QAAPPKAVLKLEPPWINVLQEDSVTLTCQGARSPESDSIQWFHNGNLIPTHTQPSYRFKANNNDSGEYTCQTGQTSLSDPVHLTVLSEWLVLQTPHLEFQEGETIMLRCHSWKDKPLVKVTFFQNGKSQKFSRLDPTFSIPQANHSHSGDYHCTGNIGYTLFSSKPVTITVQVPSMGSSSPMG

T5: human FcγRIIb (human, UniProt P31994 43-217)
T5 construct: also called FcγIIB
T5 sequence: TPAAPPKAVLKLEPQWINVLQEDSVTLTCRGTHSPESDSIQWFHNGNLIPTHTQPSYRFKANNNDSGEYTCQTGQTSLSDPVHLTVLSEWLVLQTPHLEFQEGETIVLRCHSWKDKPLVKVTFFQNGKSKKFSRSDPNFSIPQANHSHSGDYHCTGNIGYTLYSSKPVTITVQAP


Key:
[1] = target: T6, human FcγRIIIa(F) (allotype F158) (human, UniProt P08637 17-208, limits assumed); assay: SPR (Biacore), antibody captured, FcγR analyte, 25 C; normalised to captured antibody, GpH7-B3/GpL16-k0 = 100;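 further: antibodies held on sensor chips through immobilized antigen peptide, Protein A, Protein A/G or Protein L, with HBS-EP+ running buffer and FcγR in solution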
T6 construct: also called hFcgRIIIa(F); FcgRIIIaF
Protocol: (§1) Interaction between each modified antibody and Fcγ receptor prepared in the manner described above was analyzed using the BIACORE™ T100 surface plasmon resonance system (GE Healthcare), BIACORE™ T200 surface plasmon resonance system (GE Healthcare), BIACORE™ A100 surface plasmon resonance system or BIACORE™ 4000 surface plasmon resonance system. HBS-EP+(GE Healthcare) was used for the running buffer, and measurements were carried out at 25° C. The chips used were chips in which antigen peptides, Protein A (Thermo Scientific), Protein A/G (Thermo Scientific) or Protein L (ACTIGEN® protein (Alltech or BioVision) were immobilized on the Series S Sensor Chip CM5 (GE Healthcare) or Series S Sensor Chip CM4 (GE Healthcare) by amine coupling, or chips in which preliminarily biotinylated antigen peptides were allowed to interact and then immobilized on the Series S Sensor Chip SA (certified) (GE Healthcare). The target antibodies were captured on these sensor chips, Fcγ receptor diluted with the running buffer was allowed to interact, followed by measurement of the amount of bound antibody. The amounts bound were compared between antibodies. However, since the amount of Fcγ receptor bound depends on the amount of captured antibody, the values used for comparison were first corrected by dividing the amount of Fcγ receptor bound by the captured amount of each antibody. Through reaction with 10 mM glycine-HCl at pH 1.5, the sensor chips were regenerated by washing off antibody captured on the sensor chips and used repeatedly.
(§2) Binding strength was evaluated according to the following method based on the results of analyzing the interaction with each FcγR. […] That value was then further multiplied by 100, and the resulting value was used as an indicator of relative binding activity to each FcγR.

[2] = target: T1, human FcγRIIa(H) (allotype H131); assay: as above
Protocol: as §1, §2

[3] = target: T2, human FcγRIIa(R) (allotype R131); assay: as above
Protocol: as §1, §2

human FcγRIIb [4] = target: T3, human FcγRIIb; assay: as above
Protocol: as §1, §2

human FcγRIa = target: T7, human FcγRIa (human, UniProt P12314 16-292, limits assumed); assay: as above
T7 construct: Soluble analyte in SPR; also called hFcgRIa; FcgRIa
Protocol: as §1, §2

human FcγRIIa type R = target: T4, human FcγRIIa type R; assay: SPR (Biacore), captured antibody, FcγR as analyte; binding amount divided by that of IL6R-F652/IL6R-L, times 100
human FcγRIIb [5] = target: T5, human FcγRIIb; assay: as above

T6 sequence (P08637 other isoform, or with tags, fused parts or gaps limits assumed): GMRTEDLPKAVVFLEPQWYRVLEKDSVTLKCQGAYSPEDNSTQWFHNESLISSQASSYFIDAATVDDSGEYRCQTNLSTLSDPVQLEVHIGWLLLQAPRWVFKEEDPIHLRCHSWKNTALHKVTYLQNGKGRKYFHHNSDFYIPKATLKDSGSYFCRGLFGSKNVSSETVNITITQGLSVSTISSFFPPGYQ
T7 sequence (P12314 16-292 limits assumed): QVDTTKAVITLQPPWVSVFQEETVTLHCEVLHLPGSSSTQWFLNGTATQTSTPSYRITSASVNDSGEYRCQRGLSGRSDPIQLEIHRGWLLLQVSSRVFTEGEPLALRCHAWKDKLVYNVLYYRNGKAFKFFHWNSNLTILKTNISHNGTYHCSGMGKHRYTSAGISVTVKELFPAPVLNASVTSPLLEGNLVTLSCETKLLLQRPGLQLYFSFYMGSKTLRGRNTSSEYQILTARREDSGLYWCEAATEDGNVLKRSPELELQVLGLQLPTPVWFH

Row | Binder | relative binding activity (parent antibody = 100) [1] | relative binding activity (parent antibody = 100) [2] | relative binding activity (parent antibody = 100) [3] | relative binding activity (parent antibody = 100) (human FcγRIIb [4]) | relative binding activity (parent antibody = 100) (human FcγRIa) | RELATIVE BINDING ACTIVITY FOR FcγRIIaR (human FcγRIIa type R) | RELATIVE BINDING ACTIVITY FOR FcγRIIb (human FcγRIIb [5])
1 | GpH7-B3 variant A330S / GpL16-k0 (antibody, human IgG1, Anti-glypican-3 human IgG1 with B3 constant region; position by EU numbering) heavy: not shown light: DIVMTQSPLSLPVTPGEPASISCQASESLVHSNRNTYLHWYLQKPGQSPQLLIYKVSNRFSGVPDRFSGSGSGTDFTLKISRVEAEDVGVYYCSQNTHVPPTFGQGTKVEIE | 0 % of control | 0 % of control | 0 % of control | -3 % of control | 58 % of control | – | –
2 | GpH7-B3 variant P329D / GpL16-k0 (antibody, human IgG1, Anti-glypican-3 human IgG1 with B3 constant region; position by EU numbering) heavy: not shown light: DIVMTQSPLSLPVTPGEPASISCQASESLVHSNRNTYLHWYLQKPGQSPQLLIYKVSNRFSGVPDRFSGSGSGTDFTLKISRVEAEDVGVYYCSQNTHVPPTFGQGTKVEIE | -1 % of control | -1 % of control | 1 % of control | -2 % of control | 23 % of control | – | –
3 | GpH7-B3 variant P329W / GpL16-k0 (antibody, human IgG1, Anti-glypican-3 human IgG1 with B3 constant region; position by EU numbering) heavy: not shown light: DIVMTQSPLSLPVTPGEPASISCQASESLVHSNRNTYLHWYLQKPGQSPQLLIYKVSNRFSGVPDRFSGSGSGTDFTLKISRVEAEDVGVYYCSQNTHVPPTFGQGTKVEIE | 0 % of control | 0 % of control | 1 % of control | 0 % of control | 94 % of control | – | –
4 | GpH7-B3 variant P331K / GpL16-k0 (antibody, human IgG1, Anti-glypican-3 human IgG1 with B3 constant region; position by EU numbering) heavy: not shown light: DIVMTQSPLSLPVTPGEPASISCQASESLVHSNRNTYLHWYLQKPGQSPQLLIYKVSNRFSGVPDRFSGSGSGTDFTLKISRVEAEDVGVYYCSQNTHVPPTFGQGTKVEIE | 34 % of control | 58 % of control | 72 % of control | 63 % of control | 98 % of control | – | –
5 | GpH7-B3 variant P329N / GpL16-k0 (antibody, human IgG1, Anti-glypican-3 human IgG1 with B3 constant region; position by EU numbering) heavy: not shown light: DIVMTQSPLSLPVTPGEPASISCQASESLVHSNRNTYLHWYLQKPGQSPQLLIYKVSNRFSGVPDRFSGSGSGTDFTLKISRVEAEDVGVYYCSQNTHVPPTFGQGTKVEIE | 3 % of control | 5 % of control | 4 % of control | 0 % of control | 45 % of control | – | –
6 | GpH7-B3 variant I332R / GpL16-k0 (antibody, human IgG1, Anti-glypican-3 human IgG1 with B3 constant region; position by EU numbering) heavy: not shown light: DIVMTQSPLSLPVTPGEPASISCQASESLVHSNRNTYLHWYLQKPGQSPQLLIYKVSNRFSGVPDRFSGSGSGTDFTLKISRVEAEDVGVYYCSQNTHVPPTFGQGTKVEIE | 61 % of control | 70 % of control | 28 % of control | 23 % of control | 95 % of control | – | –
7 | GpH7-B3 variant P329E / GpL16-k0 (antibody, human IgG1, Anti-glypican-3 human IgG1 with B3 constant region; position by EU numbering) heavy: not shown light: DIVMTQSPLSLPVTPGEPASISCQASESLVHSNRNTYLHWYLQKPGQSPQLLIYKVSNRFSGVPDRFSGSGSGTDFTLKISRVEAEDVGVYYCSQNTHVPPTFGQGTKVEIE | -1 % of control | 0 % of control | -1 % of control | -2 % of control | 33 % of control | – | –
8 | GpH7-B3 variant I332P / GpL16-k0 (antibody, human IgG1, Anti-glypican-3 human IgG1 with B3 constant region; position by EU numbering) heavy: not shown light: DIVMTQSPLSLPVTPGEPASISCQASESLVHSNRNTYLHWYLQKPGQSPQLLIYKVSNRFSGVPDRFSGSGSGTDFTLKISRVEAEDVGVYYCSQNTHVPPTFGQGTKVEIE | 14 % of control | 26 % of control | 34 % of control | 41 % of control | 100 % of control | – | –
9 | GpH7-B3 variant P329Y / GpL16-k0 (antibody, human IgG1, Anti-glypican-3 human IgG1 with B3 constant region; position by EU numbering) heavy: not shown light: DIVMTQSPLSLPVTPGEPASISCQASESLVHSNRNTYLHWYLQKPGQSPQLLIYKVSNRFSGVPDRFSGSGSGTDFTLKISRVEAEDVGVYYCSQNTHVPPTFGQGTKVEIE | 0 % of control | 0 % of control | -1 % of control | -3 % of control | 76 % of control | – | –
10 | GpH7-B3 variant P331R / GpL16-k0 (antibody, human IgG1, Anti-glypican-3 human IgG1 with B3 constant region; position by EU numbering) heavy: not shown light: DIVMTQSPLSLPVTPGEPASISCQASESLVHSNRNTYLHWYLQKPGQSPQLLIYKVSNRFSGVPDRFSGSGSGTDFTLKISRVEAEDVGVYYCSQNTHVPPTFGQGTKVEIE | 38 % of control | 59 % of control | 64 % of control | 55 % of control | 95 % of control | – | –
11 | GpH7-B3 variant P329S / GpL16-k0 (antibody, human IgG1, Anti-glypican-3 human IgG1 with B3 constant region; position by EU numbering) heavy: not shown light: DIVMTQSPLSLPVTPGEPASISCQASESLVHSNRNTYLHWYLQKPGQSPQLLIYKVSNRFSGVPDRFSGSGSGTDFTLKISRVEAEDVGVYYCSQNTHVPPTFGQGTKVEIE | 1 % of control | 1 % of control | 0 % of control | 1 % of control | 60 % of control | – | –
12 | IL6R-F652/IL6R-L (antibody, human IgG1, P238D introduced into IL6R-F11 (M252Y/N434Y in IL6R-G1d); also called P238D) heavy: QVQLQESGPGLVKPSETLSLTCAVSGHSISHDHAWSWVRQPPGEGLEWIGFISYSGITNYNPSLQGRVTISRDNSKNTLYLQMNSLRAEDTAVYYCARSLARTTAMDYWGEGTLVTVSSASTKGPSVFPLAPSSKSTSGGTAALGCLVKDYFPEPVTVSWNSGALTSGVHTFPAVLQSSGLYSLSSVVTVPSSSLGTQTYICNVNHKPSNTKVDKKVEPKSCDKTHTCPPCPAPELLGGDSVFLFPPKPKDTLYISRTPEVTCVVVDVSHEDPEVKFNWYVDGVEVHNAKTKPREEQYNSTYRVVSVLTVLHQDWLNGKEYKCKVSNKALPAPIEKTISKAKGQPREPQVYTLPPSRDELTKNQVSLTCLVKGFYPSDIAVEWESNGQPENNYKTTPPVLDSDGSFFLYSKLTVDKSRWQQGNVFSCSVMHEALHYHYTQKSLSLSP light: DIQMTQSPSSLSASVGDRVTITCRASQDISSYLNWYQQKPGKAPKLLIYYTSRLHSGVPSRFSGSGSGTDFTFTISSLQPEDIATYYCQQGNTLPYTFGQGTKVEIK | – | – | – | – | – | 100 relative (IL6R-F652/IL6R-L = 100) | 100 relative (IL6R-F652/IL6R-L = 100)
13 | IL6R-PD086/IL6R-L (antibody, human IgG1, Alterations introduced into IL6R-F11; also called P238D/G237L) heavy: QVQLQESGPGLVKPSETLSLTCAVSGHSISHDHAWSWVRQPPGEGLEWIGFISYSGITNYNPSLQGRVTISRDNSKNTLYLQMNSLRAEDTAVYYCARSLARTTAMDYWGEGTLVTVSSASTKGPSVFPLAPSSKSTSGGTAALGCLVKDYFPEPVTVSWNSGALTSGVHTFPAVLQSSGLYSLSSVVTVPSSSLGTQTYICNVNHKPSNTKVDKKVEPKSCDKTHTCPPCPAPELLGLDSVFLFPPKPKDTLYISRTPEVTCVVVDVSHEDPEVKFNWYVDGVEVHNAKTKPREEQYNSTYRVVSVLTVLHQDWLNGKEYKCKVSNKALPAPIEKTISKAKGQPREPQVYTLPPSRDELTKNQVSLTCLVKGFYPSDIAVEWESNGQPENNYKTTPPVLDSDGSFFLYSKLTVDKSRWQQGNVFSCSVMHEALHYHYTQKSLSLSP light: DIQMTQSPSSLSASVGDRVTITCRASQDISSYLNWYQQKPGKAPKLLIYYTSRLHSGVPSRFSGSGSGTDFTFTISSLQPEDIATYYCQQGNTLPYTFGQGTKVEIK | – | – | – | – | – | 268 relative (IL6R-F652/IL6R-L = 100) | 112 relative (IL6R-F652/IL6R-L = 100)
